Drawing on patent US20220073920, this text covers Kd for two sequences.

Series [1] has as its system Human adenovirus type 2 whole virion (HAdV-2) (Human adenovirus 2). Particulars: ELASA; DPBS + 3 mM MgCl2 + 20 mM NaCl (printed NaCl2), pH 7.4, room temperature; n=6.
Series [2] shares this test system. Conditions: ELASA; DPBS + 3 mM MgCl2 + 20 mM NaCl (printed NaCl2), pH 7.4, room temperature; n=7.

Like-named read-outs stand apart in the source and are kept apart here.

The Kd is the equilibrium constant for the complex coming apart. For the sequence “GTGCCAGCTATGCCATTGGGGGACAATATCGCAGTGCATCTTCCTCTAGCGTCTATCTCTGCTGC [aptamer 10]”, the Kd in series [1] came out at 3.6 nM. On to “GTGCCAGCTATGCCATTGGGCGGGTCGTCCAATTCGAGAGGTCCCCTAGCGTCTATCTCTGCTGC [aptamer 20]”, for which the equilibrium dissociation constant (Kd) in series [2] came to 75.9 nM.
